The DeepSol protein solubility set

Test: soluble on expression in E. coli; label from the status in PepcDB or PDB records

Row | Sequence | soluble on expression in E. coli
1 | MAHHHHHHMNYAAVINGPFSSNNGNNHYSRLGYTPNGYGPQPNTTEQNPQMVPYQTFNSAAGQPVNVYQQIPPTSASRDPRTNIHIGSKLFVGQVPAMTTEEQLRPVFEPYGELLEVKIMRDPLGRSKGSAWVRYETNEMAMNAINALHEKHTVPPQTNPLRVQFATPNSVRHQQLQARYAVELKVPMNQYNFGGQMGGGTQQSGMVMLRSGASPNVVPPISANVGGRYMSAPFGGGPMESSSIMSGPYTSSANCFDGVNSSGNRRDLYSPLEQPQGTAPQLYQQQQQQQRGGFSSPVVTPPSVYNQASSTRQPTARNNNTKSGGGISMGSFESGHGMVNPNSNGAPTMANEMSTLDAGIALWEARNNNGLQGQEPREAAARVRSGERKEE | not soluble
2 | MAHHHHHHMPGSELISGGWFREENDQWPGQAMSLRVEKVLYDAPTKFQHLTIFESDPKGPWGTVMALDGCIQVTDYDEFVYHEVLGHTSLCSHPKPERVLIIGGGDGGVLREVLRHGTVEHCDLVDIDGEVMEQSKQHFPQISRSLADPRATVRVGDGLAFVRQTPDNTYDVVIIDTTDPAGPASKLFGEAFYKDVLRILKPDGICCNQGESIWLDLELIEKMSRFIRETGFASVQYALMHVPTYPCGSIGTLVCSKKAGVDVTKPLRPVEDMPFAKDLKYYDSEMHKASFALPRFARHINNSE | soluble
3 | MAHHHHHHMPMILNEGWNIIQINLQEYTEKAFRTKYMETMDIQINASIRIRCIYFCDKLYNNDELKDEYKIFSKKKEKIKYTPPQCLNKPLKKMTIKSIITEGVSKGGENLPTEVEANKATTENEILEDSSTSGNSKKTDVEPTSQKNLQSIDMTEGIELYEESTDDPFFDEKNDGEGTPLAQVIGGEELLVGGEESTEVANNMTMDLTENTVTGTMNGPMKDQQDAEEAEHLAHIKTLEMDDTNVLYEDVNYETYNNDDH | soluble
4 | MAHHHHHHMPPKGFKSNVSPEEAIAARKEKVELLSQQCAAVEKMLSICTDQGLRLNAEIAELERRIAETEVLTEQASRDLDVTVKIVTSYATSNLDQLQQRRLNMEKTAHEAEAENEALRAKIAELTGRREAEIEQWEARVEEQQALMNQKALDFGMQLKETLARRYATV | not soluble
5 | MAHHHHHHMPPKRYPNRLLVLCASINDVTAWPFWKFLQMKKIRGVTDMALLAFNSDGGSFEARIDGDKYQLKNYAKVRGYQHDMFESFVHRWHDPGRSYFVYGGHGMGDYVELEQNRVIAAGARARRRLRHACLRSSAL | not soluble
6 | MAHHHHHHMPPPLRSKAESVQREEVCQMVEPKRSMSVRDTLYGQLEFPPVIRILTNSPVVQRLRDLKQLGNSFYVYPGATHSRFEHSLGVCYLGMELYRSIVDGHREEHRDFGVPEIANLTREAAQKDMHCIGIAGLCHDLGHGPLSHLFESFVRSSARPEEVQLRKWSHEQASIMLLRKMWLENETELAELGFTESDLRYVELLINGLAPGKAWPDNVGRPKWARFTTEIIANKRSGLDVDKIDYIQRDSVACLGTPTFVSMSRLFQGARVVVGDNDETSIGYPDKLDGVIEEIFLARSHLHRIVYQHRVTKVIDLMTLDALRAAGDVFEVSNGKDGVMPLRSCVLHPDFYVHASDWIVLAILHGSNRTMAESWGSGASAEHRREKLAEACRILQRIHSRHLYTTIGSYRHSEQTLINAGRLNSVEGSSQEVKREVMIHELLSDIEVTNLDLSVKLREWSRQHNGMTAMEILQAEITQTAGDMDKKHNPVSATYFFNPRQSTHCRVEPHFSCNVTTTLFVKTGPVSSLVVVCRMPLTPQEKESLRVSFTSVADRLGKTDASSFSCTPMSQRGRAAESSQQAASVARDESAATPNHSLAGGERLTSSVSGGYPAAKRLRLDLDTQRSRRDDFDVDQSSEGVLQNDATTSSLELVTAAGYGQVGEKGQDDDDGEETDILSFS | not soluble
7 | MAHHHHHHMPPPPPAPPPPPPPPPPPKATEGNSSSTVGGAASALFAEIRQGGDNITSRLRHVTDDQKAYKQNIQHGAVDFSDLDAKKAEAEAKRQQKQKQPETTAAEEPVTRLEGDKRWVVKHHKGTPSEPCKVTLEDVNMRHAVHIHGCDNTFVEVKGKVNTVSVVSCNKAQVILESVVSALEVLKSDSVDVTVRRFVPTAMVEKSTSVNLFLMDVEEAPNTEIVTACSSAVNVNFPTVEDPTDILERPLPEQFVSRIVRDNRGKYKIETKPNEVA | soluble
